Data from patent US20050064384A1 (published 2005).

T1: FLAG-tagged GCK (human, UniProt Q12851 1-820)
T1 sequence: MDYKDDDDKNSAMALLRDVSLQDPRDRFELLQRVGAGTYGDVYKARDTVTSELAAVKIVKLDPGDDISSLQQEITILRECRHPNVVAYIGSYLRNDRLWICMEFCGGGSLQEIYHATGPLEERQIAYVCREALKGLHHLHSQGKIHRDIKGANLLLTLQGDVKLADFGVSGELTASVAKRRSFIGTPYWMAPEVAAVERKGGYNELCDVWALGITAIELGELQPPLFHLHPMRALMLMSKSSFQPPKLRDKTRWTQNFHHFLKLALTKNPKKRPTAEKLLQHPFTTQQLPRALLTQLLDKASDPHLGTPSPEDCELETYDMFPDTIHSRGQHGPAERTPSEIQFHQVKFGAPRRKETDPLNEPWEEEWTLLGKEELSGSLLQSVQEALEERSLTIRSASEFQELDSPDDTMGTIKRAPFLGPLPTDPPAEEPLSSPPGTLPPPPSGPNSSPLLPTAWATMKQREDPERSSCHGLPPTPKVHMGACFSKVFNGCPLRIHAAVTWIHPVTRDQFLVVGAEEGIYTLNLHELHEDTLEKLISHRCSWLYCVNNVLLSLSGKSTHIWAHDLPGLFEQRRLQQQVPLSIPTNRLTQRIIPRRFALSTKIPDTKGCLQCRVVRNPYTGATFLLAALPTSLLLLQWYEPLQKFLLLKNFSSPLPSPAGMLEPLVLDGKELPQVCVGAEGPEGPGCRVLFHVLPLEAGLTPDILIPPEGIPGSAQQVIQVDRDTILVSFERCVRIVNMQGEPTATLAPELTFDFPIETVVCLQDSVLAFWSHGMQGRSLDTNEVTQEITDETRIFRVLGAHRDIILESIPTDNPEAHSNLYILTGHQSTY

T2: FLAG-tagged wild type (wt) MST1 (mouse, UniProt Q9JI11 1-487)
T2 construct: also called FLAG-MST1; full-length MST1
T2 sequence: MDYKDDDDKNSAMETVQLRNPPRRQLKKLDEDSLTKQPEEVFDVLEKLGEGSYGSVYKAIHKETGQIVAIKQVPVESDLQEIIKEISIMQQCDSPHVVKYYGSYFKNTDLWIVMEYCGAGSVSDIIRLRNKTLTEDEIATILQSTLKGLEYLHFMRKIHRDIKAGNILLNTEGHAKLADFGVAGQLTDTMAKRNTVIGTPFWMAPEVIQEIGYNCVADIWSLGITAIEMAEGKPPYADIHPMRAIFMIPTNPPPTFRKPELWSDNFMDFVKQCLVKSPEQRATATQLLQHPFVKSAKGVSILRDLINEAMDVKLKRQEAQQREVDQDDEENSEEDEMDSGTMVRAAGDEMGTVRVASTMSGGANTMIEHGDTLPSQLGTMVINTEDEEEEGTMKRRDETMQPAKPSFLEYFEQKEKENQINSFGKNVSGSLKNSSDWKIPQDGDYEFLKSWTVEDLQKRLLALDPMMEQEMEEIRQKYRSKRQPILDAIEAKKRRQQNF

B1: GST-NORE (7-413) (other, not shown: a dimerising Fc or GST)
chain: GQRPYPLLLDPEPPRYLQSLGGTEPPPPARPRRCIPTALIPAAGASEDRGGRRSGRRDPEPTPRDCRHARPVRPGLQPRLRLRPGSHRPRDVRSIFEQPQDPRVLAERGEGHRFVELALRGGPGWCDLCGREVLRQALRCANCKFTCHSECRSLIQLDCRQKGGPALDRRSPGSTLTPTLNQNVCKAVEETQHPPTIQEIKQKIDSYNSREKHCLGMKLSEDGTYTGFIKVHLKLRRPVTVPAGSGPSPSMDAIKEVNPAATTDKRTSFYLPLDAIKQLHISSTTTVSEVIQGLLKKFMVVDNPQKFALFKRIHKDGQVLFQKLSIADYPLYLRLLAGPDTDVLSFVLKENETGEVEWDAFSIPELQNFLTILEKEEQDKIHQLQKKYNKFRQKLEEALRESQGKPG
B2: HA-NORE1 (other)
chain: MYPYDVPDYAMASPAIGQRPYPLLLDPEPPRYLQSLGGTEPPPPARPRRCIPTALIPAAGASEDRGGRRSGRRDPEPTPRDCRHARPVRPGLQPRLRLRPGSHRPRDVRSIFEQPQDPRVLAERGEGHRFVELALRGGPGWCDLCGREVLRQALRCANCKFTCHSECRSLIQLDCRQKGGPALDRRSPGSTLTPTLNQNVCKAVEETQHPPTIQEIKQKIDSYNSREKHCLGMKLSEDGTYTGFIKVHLKLRRPVTVPAGSGPSPSMDAIKEVNPAATTDKRTSFYLPLDAIKQLHISSTTTVSEVIQGLLKKFMVVDNPQKFALFKRIHKDGQVLFQKLSIADYPLYLRLLAGPDTDVLSFVLKENETGEVEWDAFSIPELQNFLTILEKEEQDKIHQLQKKYNKFRQKLEEALRESQGKPG
notes: also called recombinant hemagglutinin (HA)-tagged NORE fusion polypeptide

Experiments:
FLAG-tagged Ki-RasG12V = target: T3, FLAG-tagged Ki-RasG12V (Meleagris gallopavo (Wild turkey), UniProt P79800 1-188); experiment: in vitro binding of FLAG-Ras from HEK293 extracts to GST fusion protein immobilized on GSH-agarose, anti-FLAG immunoblot
T3 construct: also called FLAG Ki-RasG12V
Text: (§1) Aliquots of extracts from these cells (as shown in the center panel) were adsorbed to the immobilized GST proteins; the beads were washed extensively and eluted with SDS.

FLAG-tagged Ha-RasG12V = target: T4, FLAG-tagged Ha-RasG12V (human, UniProt P01112 1-189); experiment: as above
T4 construct: also called FLAG-V12RAS; FLAG Ha-RasG12V
Text: as §1

FLAG-tagged GCK = target: T1, FLAG-tagged GCK; experiment: anti-FLAG immunoprecipitation from co-transfected HEK293 cells, anti-HA immunoblot
Description: (§2) FLAG-tagged proteins were immunopreciptated with anti-FLAG M2-agarose, eluted with the excess of the FLAG peptide. The eluates were analyzed by immunoblotting after SDS-PAGE. Upper panel: proteins immunoprecipitated (IP) by FLAG-agarose probed with anti-HA antibody 12CA5 (α-HA). Middle panel: cell extracts probed with anti-FLAG antibody (α-FLAG).

FLAG-tagged SOK = target: T5, FLAG-tagged SOK (human, UniProt O00506 1-426); experiment: as above
T5 construct: also called SOK1
Description: as §2

[1] = target: T2, FLAG-tagged wild type (wt) MST1; experiment: anti-FLAG immunoprecipitation from co-transfected HEK293 cells, FLAG peptide elution, anti-HA immunoblot
Description: as §2

T5 sequence (O00506 other isoform, or with tags, fused parts or gaps limits assumed): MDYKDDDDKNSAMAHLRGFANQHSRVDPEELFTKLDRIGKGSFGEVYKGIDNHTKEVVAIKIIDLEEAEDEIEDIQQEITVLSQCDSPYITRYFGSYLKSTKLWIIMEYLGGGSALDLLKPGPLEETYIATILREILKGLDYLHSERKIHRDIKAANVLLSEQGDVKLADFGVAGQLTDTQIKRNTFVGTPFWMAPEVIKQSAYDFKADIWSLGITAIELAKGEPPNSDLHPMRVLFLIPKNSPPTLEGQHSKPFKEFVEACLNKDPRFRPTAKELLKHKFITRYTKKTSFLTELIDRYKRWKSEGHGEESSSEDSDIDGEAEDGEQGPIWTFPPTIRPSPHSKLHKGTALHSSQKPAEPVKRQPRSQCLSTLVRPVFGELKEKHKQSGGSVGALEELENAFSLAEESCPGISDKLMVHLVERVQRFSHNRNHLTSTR

| Binder | binding result (FLAG-tagged Ki-RasG12V) | binding result (FLAG-tagged Ha-RasG12V) | binding result (FLAG-tagged GCK) | binding result (FLAG-tagged SOK) | binding result [1] |
| --- | --- | --- | --- | --- | --- |
| B1 | binds | binds | – | – | – |
| B2 | – | – | no binding | no binding | binds |
